Three molecules from paper PMC6668613 (Nature plants, 2019) can be followed below.

Like-named read-outs stand apart in the source and are kept apart here. Ends that are not written are not given here.

Assay in all cases: BLI
(In general: In BLI a coated tip is dipped into the sample, and binding shifts an interference pattern.)

Test [1] has as its target T1, GST-MPK6 (Arabidopsis thaliana, UniProt Q39026 1-395).
The target in test [2] is T1, GST-MPK6. The source holds these as a separate data set.
Another test deals with T2, GST-MPK3 (Arabidopsis thaliana, UniProt Q39023 1-370).
T2 sequence (looked up): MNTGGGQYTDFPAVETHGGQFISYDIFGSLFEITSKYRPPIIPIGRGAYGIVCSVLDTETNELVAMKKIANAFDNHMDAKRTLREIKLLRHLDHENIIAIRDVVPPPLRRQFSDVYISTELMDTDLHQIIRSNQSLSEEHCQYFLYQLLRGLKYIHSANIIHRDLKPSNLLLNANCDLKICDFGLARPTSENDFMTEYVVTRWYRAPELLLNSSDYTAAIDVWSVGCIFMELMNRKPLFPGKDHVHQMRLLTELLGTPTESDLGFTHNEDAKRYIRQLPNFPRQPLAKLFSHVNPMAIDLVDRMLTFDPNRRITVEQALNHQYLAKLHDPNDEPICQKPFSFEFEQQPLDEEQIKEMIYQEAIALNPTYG

T1 sequence (Q39026 whole entry): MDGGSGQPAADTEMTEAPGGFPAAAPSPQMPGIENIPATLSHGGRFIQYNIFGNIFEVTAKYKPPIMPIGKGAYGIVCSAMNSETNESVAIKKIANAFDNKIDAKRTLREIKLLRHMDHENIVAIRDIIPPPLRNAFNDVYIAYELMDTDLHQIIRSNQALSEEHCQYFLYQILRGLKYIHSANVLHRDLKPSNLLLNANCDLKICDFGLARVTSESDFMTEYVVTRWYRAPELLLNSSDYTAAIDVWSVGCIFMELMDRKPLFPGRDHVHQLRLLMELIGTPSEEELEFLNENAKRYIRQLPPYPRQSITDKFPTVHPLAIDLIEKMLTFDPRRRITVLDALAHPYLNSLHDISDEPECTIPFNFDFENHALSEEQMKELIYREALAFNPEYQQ

B1: Docking motif peptide, biotinylated (peptide)
chain: GGFVGNRAKVLKPLEVL
modifications: also: biotinylated, position not given here
For the molecule B1, binding with GST-MPK6 [1] was characterised by a dissociation constant (Kd) of 2300 ± 500 nM.

B2: SCRM KiDoK full-length peptide, biotinylated (peptide)
chain: GGFVGNRAKVLKPLEVLASSGAQPTLFQKRAAMRQ
modifications: also: biotinylated, position not given here
B2: in the test with GST-MPK6 [2], the Kd (commonly a measure of binding affinity in units of concentration) was 47 ± 6 nM.

B3: KRAAM motif peptide, biotinylated (peptide)
chain: ASSGAQPTLFQKRAAMRQ
modifications: also: biotinylated, position not given here
As for B3, the Kd with GST-MPK3 amounted to 2800 ± 700 nM; in the test with GST-MPK6 [1], 2400 ± 400 nM.
